These results are taken from article PMC11362559.

The assay concerns the target biotinylated I-A^b protein (SPR) (mouse). Nature of the assay: SPR.

Regarding “mLAG3^ΔL1 (Loop 1 deletion construct of mouse LAG3) (from UniProt Q61790) (receptor)”, the Kd (commonly the free concentration of one partner at which half of the binding sites on the other are occupied at equilibrium, for simple one-to-one binding) came out at 14.8 µM.
